Reference: the DeepSol protein solubility set

Assay: soluble on expression in E. coli; label from the status in PepcDB or PDB records

Row | Sequence | soluble on expression in E. coli
1 | MKCPFCNPIKENILYEDDTIRILLDNYPANPGHLLIVPRRHVTKLEELSEGEKASLLRGIEIAIEALKKTLNPDGFNVGINIGKAAGQTVEHLHIHVIPRFNNDCKYPKGGIRKAVLDVKDENLEDEERWTKNRLPREKVEELRRALHGG | soluble
2 | SLVRNGRIAFAGPESDLPDDLSTADETTDCGGRWITPALIDCHTHLVFGGNRAMEFEMRLNGATYEEIAKAGGGIVSSVRDTRALSDEVLVAQALPRLDTLLSEGVSTIEIKSGYGLDIETELKMLRVARRLETLRPVRIVTSYLAAHATPADYKGRNADYITDVVLPGLEKAHAEGLADAVDGFCEGIAFSVKEIDRVFAAAQQRGLPVKLHAEQLSNLGGAELAASYNALSADHLEYLDETGAKALAKAGTVAVLLPGAFYALREKQLPPVQALRDAGAEIALATDCNPGTSPLTSLLLTMNMGATLFRMTVEECLTATTRNAAKALGLLAETGTLEAGKSADFAIWDIERPAELVYRIGFNPLHARIFKGQKVSP | not soluble
3 | MFTAKLIKGKTYNVMGITFRAGVSQTVPKKLYEYLNENPYFILTQELNNQKDDPINYTESELKGMNKAEHESIISNLGRNPSDFKNADERIAYILKQIDNKGELEHHHHHH | soluble
4 | STTEVVMENVTAFWEEGFGELFEKAKQNNNNRKTSNGDDSLSFSNFSLLGTPVLKDINFKIERGQLLAVAGSTGAGKTSLLMMIMGELEPSEGKIKHSGRISFCSQNSWIMPGTIKENIIFGVSYDEYRYRSVIKACQLEEDISKFAEKDNIVLGEGGITLSGGQRARISLARAVYKDADLYLLDSPFGYLDVLTEKEIFESCVCKLMANKTRILVTSKMEHLKKADKILILHEGSSYFYGTFSELQNERPDFSSKLMGCDSFDQFSAERRNSILTETLHRFSLEGDAPVSENLYFQGDKDCEMKRTTLDSPLGKLELSGCEQGLHEIKLLGKGTSAADAVEVPAPAAVLGGPEPLMQATAWLNAYFHQPEAIEEFPVPALHHPVFQQESFTRQVLWKLLKVVKFGEVISYQQLAALAGNPAATAAVKTALSGNPVPILIPCHRVVSSSGAVGGYEGGLAVKEWLLAHEGHRLGKPGLG | soluble
5 | MPIRAARASLRRMDSDFLIIGGGIAGVSAAARLSELGSVTLLEAEDALAHHASSRSAALYEPRYGLPPVVELSLASGDFFRAADGILSPRGLLVVGREAEREQFEDETVGMHLERISAEEARAAVPILRPDVTLAARADHAWDIDTDRLLQGFAREARARGARIVTKARVGAIARDGAGWRVEAGESYRARILVNAAGAWADGVAALSGVRPLGLVPYRRSMARIPAPGGHDISRWPMIFGVGESWYAKPDAGALIVSPADEDPQEPHDAWADDMVLAEGLARYEEMVTEPVTRLLASWAGLRTFAPDRVLVIGEDPAAPGFFWLAGQGGYGFQTCPAASRLAADLIGGRSPEVPAALIAALSPDRFALEHHHHHH | not soluble
6 | LVLKVVTVTRNLDPDDTARKKAPPPPKRAPTTALTLRSKSMTSELEELVDKDKPEEIVPASKPSRAAENMAVEPRVATIKQRPSSRCFPAGSDMNSVYERQGIAVMTPTVPGSPKAPFLGIPRGTMRRQKSIDSRIFLSGITEEERQFLAPPMLKFTRSLSMPDTSEDIPPPPQSVPPSPPPPSPTTYNCPKSPTPRVYGTIKPAFNQNSAAKVSPATRSDTVATMMREKGMYFRRELDRYSLDSEDLYSRNAGPQANFRNKRGQMPENPYSEVGKIASKAVYVPAKPARRKGMLVKQSNVEDSPEKTCSIPIPTIIVKEPSTSSSGKSSQGSSMEIDPQAPEPPSQLRPDESLTVSSPFAAAIAGAVRDREKRLEARRNSPAFLSTDLGDEDVGLGPPAPRTRPSMFPEEGDFADEDSAEQLSSPMPSATPREPENHFVGGAEASAPGEAGRPLNSTSKAQGPESSPAVPSASSGTAGPGNYVHPLTGRLLDPSSPLALALSARDRAMKESQQGPKGEAPKADLNKPLYIDTKMRPSLDAGFPTVTRQNTRGPLRRQETENKYETDLGRDRKGDDKKNMLIDIMDTSQQKSAGLLMVHTVDATKLDNALQEEDEKAEVEMKPDSSPSEVPEGVSETEGALQISAAPEPTTVPGRTIVAVGSMEEAVILPFRIPPPPLASVDLDEDFIFTEPLPPPLEFANSFDIPDDRAASVPALSDLVKQKKSDTPQSPSLNSSQPTNSADSKKPASLSNCLPASFLPPPESFDAVADSGIEEVDSRSSSDHHLETTSTISTVSSISTLSSEGGENVDTCTVYADGQAFMVDKPPVPPKPKMKPIIHKSNALYQDALVEEDVDSFVIPPPAPPPPPGSAQPGMAKVLQPRTSKLWGDVTEIKSPILSGPKANVISELNSILQQMNREKLAKPGEGLDSPMGAKSASLAPRSPEIMSTISGTRSTTVTFTVRPGTSQPITLQSRPPDYESRTSGTRRAPSPVVSPTEMNKETLPAPLSAATASPSPALSDVFSLPSQPPSGDLFGLNPAGRSRSPSPSILQQPISNKPFTTKPVHLWTKPDVADWLESLNLGEHKEAFMDNEIDGSHLPNLQKEDLIDLGVTRVGHRMNIERALKQLLDR | soluble
7 | MSLGASTNWDDHAIIIFGYPETIANSIILHFANFGEILEDFRVIKDFKKLNSKNMSKSPSLTAQKYPIYTGDGWVKLTYKSELSKSRALQENGIIMNGTLIGCVSYSPAALKQLASLKKSEEIINNKTSSQTSLSSKDLSNYRKTEGIFEKAKAKAVTSKVRNAEFKVSKNSTSFKNPRRLEIKDGRSLFLRNRGKIHSGVLSSIESDLKKREQASKSKKSWLNRLNNWLFGWNDLEGHHHHHH | soluble
8 | SLRHFGKRLRVSSSQPFRRSFNPKGEPMSTQIFVNLPVKNLNQSIEFFTQLGFQFNSQFTDETATCMIVSESIFVMLLTHEKFKMFTPKEICDATKSTEVLVCLSFDSREQVDEMVRLAVTAGGTTYNEPQDHGFMYGHGFADLDGHIWEIIYMEPSAINLGEG | soluble
9 | MSTQSILTKPTEATAFQPDQVVRILETVLLTTPEPLSISDLKKLFEGNIDKKTLHESLTILSEKWHDSGINLVSVAGGWRFQSKPEMQVFLDRLNPQRPPRYSRAVMETLAIIAYRQPVTRGDIEEIRGVAVSTQIIKTLESRGWIETIGQRDIPGKPYLYATTRHFLDDLNLQSLEQLPSLDSFNSLDLSADEAESVDTDTTTIQESGEPASHEPTQLL | not soluble
10 | MHNVVITAAVRSPIGTFGGALKNVTPVELAVPVLQEAVKRGGVEPHEVDEVILGHCIQRTDEANTARTAALAAGFPDTVTGYTIQRQCSSGMQAIMSAAMQIQLGVSEVVVAGGVEAMSSSPYALKQHRWGQRLQHGEIRDTVWEVLEDPIHHIMMGETAENLVEQYEITREEQDEVALRSHTLALKAIESGYFDDQIVPITIKERRKEVVFSKDEHPRADITAEKLAGLKPAFRKDGSVTAGNASGLNDGSAVLVLMSEEKAKEKGLQPLARIVGYSVAGVDPKIMGIGPAPAIRKGLEKVDWSLEDADLLEINEAFAAQYLAVEKELGLDREKVNVNGSGVGLGHPIGCTGARITVSLIHELKRRGLEKGIASLCVGGGIGVALFIEAL | not soluble
11 | MQAPVVTETCQTNEEGEQLVLRLRAPVERPRVTWGAGVIDNEHMGRLKSNCCCIYTPPRVWDDPSTWEPEEHETEHCRGHTLPEKKQKPQGGHGSDKDEDKGNCGCDHC | not soluble
12 | AVSLDRTRAVFDGSEKSMTLDISNDNKQLPYLAQAWIENENQEKIITGPVIATPPVQRLEPGAKSMVRLSTTPDISKLPQDRESLFYFNLREIPPRSEKANVLQIALQTKIKLFYRPAAIKTRPNEVWQDQLILNKVSGGYRIENPTPYYVTVIGLGGSEKQAEEGEFETVMLSPRSEQTVKSANYNTPYLSYINDYGGRPVLSFICNGSRCSVKKEKHHHHHH | soluble
13 | MKIISKEFTVKTRSRFDSIDITEQVSEAIKGINNGIAHVIVKHTTCAIIINEAESGLMKDFLNWAKKLVPPDGEFEHNIIDNNGHAHVISAIIGNSRVVPIIEGKLDLGTWQRIILLEFDGPRTRTVLVKSMGE | soluble
14 | MSKYKIFVDGAVGTTGLGIFERLRAAKDIELLTLADEQRKDLKARLANVAAADLTLLCLPDTASKQLVLHAPPSAKICDTSTAHRVDPAWVYGFAELSGQFNNIQTATRVAIPGCHATGYIALLRPLIERHYLNADYPFTCHSLTGYSGGGKAMIADYQAPIRDDKFKAPRMYGLTLHHKHLAEMCAFTGSSNPPIFTPIVADYYSGMLVNVPLPLAAFTQEANDGEKISGILADYYREASLINVHYVNDLPTDGMVAANSLAGKDRLDIFVYANQTQVVLSAIFDNLGKGASGAAIQCMNIMLGRDQLADLHI | not soluble
15 | MNVTEITQLARDIRVATLKSLNHLGFGHYGGSMSVVETLAVLYGAVMKIDPADPDWPERDYFVLSKGHAGPALYSTLAIKGYFPREELNTLNQNGTRLPSHPDRLKTRGVDATTGSLGQGISIAGGMALSHKLARRPNRVFCIVGDGELNEGQCWEAFQFIAHHRLNNLTVFIDWNKQQLDGELEEIINPFDLEGKFRAFGFDVVTVKGDDIAGLLAVVQPVPPADAQPRVVILDSIKGQGVPCLEQLTNSHHLRLTDGMKQTLNEAIHQLEVMHD | not soluble
16 | MAHHHHHHMARDYDAGYKLLFAMPEMMRDLLREFIRSDWLRALDYSTLERVSGNYVADNMRQRASDMVWRVDAGDPWGHLYVLLEFQSTIDRYMAPRMAAYTALLHQELVRAGQVLPDRRVPAALSIVLYNGDTPWSACTNIRDVVVSLPNGLAACQLHQQHTLLDINRLSEAQLPDDNLAALLFRIERAADYDTVVSLMIECRMRLRHEPKLKLAFAKTFAALLCGQRGSVLTPDQVFQLMEVDMQVVGANLQRFTHKLREEARQEGEARMLQKLLAERFGSLHASVVQRIEIATPEELERWGIQLLRAEVIEDVFRA | soluble
17 | PKALIVYGSTTGNTEYTAETIARELADAGYEVDSRDAASVEAGGLFEGFDLVLLGCSTWNDDSIELQDDFIPLFDSLEETGAQGRKVACFGCGDSSYEYFCGAVDAIEEKLKNLGAEIVQDGLRIDGDPRAARDDIVGWAHDVRGAI | soluble
18 | MGHHHHHHSHMAASRNGFEAVEAEGSAGCRGSSGMEVVLPLDPAVPAPLCPHGPTLLFVKVTQGKEETRRFYACSACRDRKDCNFFQWEDEKLSGARLAAREAHNRRCQPPLSRTQCVERYLKFIELPLTQRKFCQTCQQLLLPDDWGQHSEHQVLGNVSITQLRRPSQLLYPLENKKTNAQYLFADRSCQFLVDLLSALGFRRVLCVGTPRLHELIKLTASGDKKSNIKSLLLDIDFRYSQFYMEDSFCHYNMFNHHFFDGKTALEVCRAFLQEDKGEGIIMVTDPPFGGLVEPLAITFKKLIAMWKEGQSQDDSHKELPIFWIFPYFFESRICQFFPSFQMLDYQVDYDNHALYKHGKTGRKQSPVRIFTNIPPNKIILPTEEGYRFCSPCQRYVSLENQHCELCNSCTSKDGRKWNHCFLCKKCVKPSWIHCSICNHCAVPDHSCEGPKHGCFICGELDHKRSTCP | soluble
19 | MAHHHHHHMELSKYAGLSSERLDCLRNLDIRKRSIYKGSTFSYGNNIYDILHNYSDKQKENKSDGVSVAHDYKDFQRNIKFAGLESEIKNDINIRNRRIKNDMNYRNDNLKDILQNNMNEQNINNSKYFLSDKGYVLTPKRCLARHVDDSEINKYFSTKYAVTDSSTGRTEIMVERKPGCSNIIVQNFSEFDAYGTYKKKDERINRRDSFVHTKMGIVPRDGSCIDNNKCKAQATFTHIHRRDNIAPDNYWLCPTIESDKKNKTKR | not soluble
20 | MAHHHHHHMSFHPRDAFILHQEYIQRLNEGDEVDTSAEQKVELNLQRHADSESAATVTFSHEDHTLGNPLRHVIMEDPSVTSAGYAIPHPLEAKMQLHVQSSEYAVETVAKGLERLAAICDETLKSFNACVEAISAEDPEGH | not soluble
